Read-outs that look alike come from different tables or passages of the source.
Tests used:
[1] = biological target: T1, CoV2_5P prefusion-stabilized spike protein (SARS-CoV-2, UniProt P0DTC2 14-1208); assay: ELISA
T1 construct: also called 5P trimer; wildtype 5P

off-target V5 peptide = biological target: T2, off-target V5 peptide; assay: ELISA on fusion peptides
T2 construct: also called V5 tag
T2 peptide: GKPIPNPLLGLDST

CoV2_5P_HKU1FP = CoV2_5P_HKU1FP (SARS-CoV-2 spike with HKU1 fusion …, UniProt P0DTC2 14-1208); assay: ELISA AUC on 5P spikes with varying fusion peptides
CoV2_5P_NL63FP [2] = biological target: T3, CoV2_5P_NL63FP (SARS-CoV-2 spike with NL63 fusion …, UniProt P0DTC2 14-1208); assay: ELISA, AUC
CoV2_5P_229EFP [3] = biological target: T4, CoV2_5P_229EFP (SARS-CoV-2 spike with 229E fusion …, UniProt P0DTC2 14-1208); assay: ELISA, AUC
CoV2_5P_NonSFP [4] = biological target: T5, CoV2_5P_NonSFP (SARS-CoV-2, UniProt P0DTC2 14-1208); assay: ELISA, AUC
T5 construct: also called scrambled fusion peptide spike

CoV2_5P_MERSFP [5] = biological target: T6, CoV2_5P_MERSFP (SARS-CoV-2 spike with MERS fusion …, UniProt P0DTC2 14-1208); assay: ELISA, AUC
CoV2_5P_OC43FP [6] = biological target: T7, CoV2_5P_OC43FP (SARS-CoV-2 spike with OC43 fusion …, UniProt P0DTC2 14-1208); assay: ELISA, AUC
CoV2_5P_229EFP [7] = biological target: T4, CoV2_5P_229EFP; assay: ELISA AUC on 5P spikes with varying fusion peptides
CoV2_5P_MERSFP [8] = biological target: T6, CoV2_5P_MERSFP; assay: as above
[9] = biological target: T1, CoV2_5P prefusion-stabilized spike …; assay: ELISA, AUC
CoV2_5P_NL63FP [10] = biological target: T3, CoV2_5P_NL63FP; assay: ELISA, AUC; remark: listed apart in the source
CoV2_5P_NonSFP [11] = biological target: T5, CoV2_5P_NonSFP; assay: ELISA, AUC; remark: listed apart in the source
CoV2_5P_OC43FP [12] = biological target: T7, CoV2_5P_OC43FP; assay: ELISA, AUC; remark: listed apart in the source
CoV2_5P_229EFP [13] = biological target: T4, CoV2_5P_229EFP; assay: ELISA, AUC; remark: listed apart in the source
CoV2_5P_MERSFP [14] = biological target: T6, CoV2_5P_MERSFP; assay: ELISA, AUC; remark: listed apart in the source
[15] = biological target: T1, CoV2_5P prefusion-stabilized spike …; assay: ELISA, AUC; remark: listed apart in the source

B1: C668 (antibody, V domains shown)
VH: EVKLVESGGGLVKPGGSLKLSCLVSGITFSNDAMSWVRQTPEKRLEWVASISSGGRNYYPDSVKGRFTISRDNARNILYLQMSSLRSEDTAMYFCAREGISVWAMDYWGQGTSVTVSS
VL: DIVMTQAAFSNPVTLGTSASISCRSSKSLLHSNGITYLYWYLQRPGQSPQLLIYRMSNLASGVPDRFSSSGSGTDFTLRISRVEAEDVGVYYCAQNLELPPTFGGGTKLEIK
notes: also called lineage HV5-6-5/KV2-109 antibody C668
- EC50 (read off the curve) [1]: ~0.2 µg/mL

B2: C2691 (antibody, V domains shown)
VH: QVQLQQSGPELVRPGESVKISCKGSGYTFTDYAMHWVKQSHAKSLEWIGIISFYYDNTKYNQNFKGKATMTVDKSSSTAYMELARLTSEDSAIYFCASQGIHYYGSFAYWGQGTLVTVSA
VL: DIVMTQSQKFMSTSVGDRVSVSCKASQNVGTNLGWYQQKPGQSPKALIYSASYRYSGVPDRFTGSGSGTDFTLTISNVQSEDLAEYFCQQYNSSPLTFGAGTKLELK
notes: also called lineage HV1-67/KV6-15 antibody C2691
- binding result [1]: binds
- binding result (off-target V5 peptide): no binding (tested: dilution 0.05 (no unit))
- binding result (CoV2_5P_HKU1FP): binds
- binding result (CoV2_5P_NL63FP [2]): binds
- binding result (CoV2_5P_229EFP [3]): binds
- binding result (CoV2_5P_NonSFP [4]): no binding
- binding result (CoV2_5P_MERSFP [5]): binds
- binding result (CoV2_5P_OC43FP [6]): binds

B3: C2503 (antibody, V domains shown)
VH: QVQLQQSGPELVRPGESVKISCKGSGYTFTDYAMHWVKQSHSKSLEWIGIISFYYDNTKYNQNFKGKATMTVDKSSSTAYMELARLTSEDSAIYFCASQGIHYYGSFAYWGQGTLVTVSA
VL: DIVMTQSQKFMSTSVGDRVSVTCKASQNVGTNVGWYQQKPGQSHKALIYSASYRYSGVPDRFTGSGSGTDFTLTISNVQSEDLADYFCQQYNNYPLTFGAGTKLELK
notes: Lineage HV1-67/KV6-15
- binding result (CoV2_5P_NonSFP [4]): no binding

B4: C2866 (antibody, V domains shown)
VH: QVQLQQSGPELVRPGESVKISCKGSGYTFTDYAMHWVKQSHAKSLEWIGIFSFYYDNTKYNQNFKGKATMTVDKSSSTAYMELARLTSEDSAIYFCASQGIHYYGSFAYWGQGTLVTVSA
VL: DIVMTQSQKFMSTSVGDRVSVTCKASQNVGTNVGWYQQKPGQSPQALIYSASYRYSGVPDRFTGSGSGTDFTLTISNVQSEDLAEYFCQQYNSYPLTFGAGTKLELK
notes: Lineage HV1-67/KV6-15
- binding result (CoV2_5P_NonSFP [4]): no binding

B5: C862 (antibody, V domains shown)
VH: EVKLVESGGGLVKPGGSLKLSCAASGITFSSSAMSWVRQTPEKRLEWVASISSGGHTYYLDSMKGRFTISRDNARNILYLQMGSLRSEDTAVYYCAREGIYVWAMDYWGQGTSVTVSS
VL: DIVMTQAAFSNPVTLGTSASISCRSSKSLLQSNGITYLYWYLQKPGQSPQLLIYRMSNLASGVPDRFSGSGSGTDFTLRISRVEAEDVGIYYCAQNLELPPTFGGGTKLEIK
- binding result (CoV2_5P_229EFP [7]): binds
- binding result (CoV2_5P_MERSFP [8]): binds
- binding result (CoV2_5P_HKU1FP): binds
- binding result [9]: binds
- binding result (CoV2_5P_NL63FP [10]): binds
- binding result (CoV2_5P_NonSFP [11]): no binding
- binding result (CoV2_5P_OC43FP [12]): binds

B6: C1766 (antibody, V domains shown)
VH: EVKLVESGGGLVKPGGSLKLSCVASGFTFSNDAMSWVRQTPEKRLEWVASISSGGRKYYPDNVKGRFTISRDNARNILYLQMSSLRSEDTAMYYCAREGIYVWAMDYWGQGTSVTVSS
VL: DIVMTQAAFSNPVTLGTSASISCRSSESLLHSNGITYLYWYLQKPGQSPQLLIYRMSNLASGVPDRFSSSGSGTDFTLRISRVEAEDVGVYYCAQNLELPPTFGGGTKLEIK
- binding result (CoV2_5P_HKU1FP): binds
- binding result [9]: binds
- binding result (CoV2_5P_NL63FP [10]): binds
- binding result (CoV2_5P_229EFP [13]): binds
- binding result (CoV2_5P_NonSFP [11]): no binding
- binding result (CoV2_5P_MERSFP [14]): binds
- binding result (CoV2_5P_OC43FP [12]): binds

B7: C2891 (antibody, V domains shown)
VH: QVQLQQSGPALVRPGESVKISCKGSGYTFTDYAMHWVKQSRAKSLEWIGIFSFYYDNTNYTQKFKGKATMTVDKSSSTAYMELARLTSEDSAIYYCASQGIHYYGSFAYWGQGTLVTVSA
VL: DIVMTQSQKFMSTSVGDRVSVTCKASQNVATNLGWYQQKPGQSPKTLIYSASYRYSGVPDRFTGSGSGTDFTLTISNVQSEDLAEYFCHQYNGYPLTFGAGTKLELK
- binding result [15]: no binding
- binding result (CoV2_5P_NL63FP [2]): no binding
- binding result (CoV2_5P_229EFP [3]): no binding
- binding result (CoV2_5P_NonSFP [4]): no binding
- binding result (CoV2_5P_MERSFP [5]): no binding
- binding result (CoV2_5P_OC43FP [6]): no binding

Source: patent US20250134988A1 (WISTAR INSTITUTE OF ANATOMY AND BIOLOGY, published 2025)
